Assay results published in US20230348616A1 (MIE UNIVERSITY, published 2023).

B1: NYA-2048 (scFv)
scFv: GQVQLVESGGGVVQPGRSLRLSCAASGFSIRSYDMHWVRQAPGKGLEWVATISYDGSQKYYADSVKGRFTISRDNSKNTLYLQMSSLRAEDTAVYHCARGSSGHYEAFDIWGQGTLVTVSSGGGGSGGGGSGGGGSQSVLTQPPSASGTPGQRVTISCSGSSSNIGNWYVSWYQQLPGTAPKLLIYDNNKRPSGVPDRFSGSKSGTSASLAISGLQSEDEADYYCGTWDSSLSAPWVFGGGTKLTVLGAAAGAGGDYKDDDDKGAAAHHHHHH
notes: also called NYA-2048 tag adduct
B2: NYA-2044 (scFv)
scFv: GEVQLVESGGGLVQPGGSLRLSCAASGFSIRSYDIHWVRLAPGKGLEWVATISYDGSQKYYADSVKGRFTISRDESKNTLYLQMNSLRAEDTAVYHCARGSSGHYEAFDIWGQGTLVTVSSGGGGSGGGGSGGGGSQSVLTQPPSVSAAPGQKVTISCSGSSSNIGNWYVSWYQQLPGTAPKLLIYDNNKRPSGIPDRFSGSKSGTSATLGITGLQTGDEADYYCGTWDSSLSAPWVFGGGTKVTVLGAAAGAGGDYKDDDDKGAAAHHHHHH
notes: also called NYA-2044 tag adduct
B3: NYA-2045 (scFv)
scFv: GEVQLVESGGGLVQPGGSLRLSCAASGFSIRSYDIHWVRLAPGKGLEWVATISYDGSQKYYADSVKGRFTISRDESKNTLYLQMNSLRAEDTAVYHCARGSSGHYEAFDIWGQGTLVTVSSGGGGSGGGGSGGGGSQSVLTQPPSASGTPGQRVTISCSGSSSNIGNWYVSWYQQLPGTAPKLLIYDNNKRPSGVPDRFSGSKSGTSASLAISGLQSEDEADYYCGTWDSSLSAPWVFGGGTKLTVLGAAAGAGGDYKDDDDKGAAAHHHHHH
notes: also called NYA-2045 tag adduct
B4: NYA-2047 (scFv)
scFv: GQVQLVESGGGVVQPGRSLRLSCAASGFSIRSYDMHWVRQAPGKGLEWVATISYDGSQKYYADSVKGRFTISRDNSKNTLYLQMSSLRAEDTAVYHCARGSSGHYEAFDIWGQGTLVTVSSGGGGSGGGGSGGGGSQSVLTQPPSVSAAPGQKVTISCSGSSSNIGNWYVSWYQQLPGTAPKLLIYDNNKRPSGIPDRFSGSKSGTSATLGITGLQTGDEADYYCGTWDSSLSAPWVFGGGTKVTVLGAAAGAGGDYKDDDDKGAAAHHHHHH
B5: NYC-0004 (scFv, not shown: small tags and cut ends)
scFv: EVQLLESGGGLVQPGGSLRLSCAASGFTFSTYQMSWVRQAPGKGLEWVSGIVSSGGSTAYADSVKGRFTISRDNSKNTLYLQMNSLRAEDTAVYYCAGELLPYYGMDVWGQGTTVTVSSGGGGSGGGGSGGGGSQSELTQPRSVSGSPGQSVTISCTGTERDVGGYNYVSWYQQHPGKAPKLIIHDVIERSSGVPDRFSGSKSGNTASLTISGLQAEDEADYYCWSFAGGYYVFGTGTDVTVL
notes: also called T1 scFv; NYC-0004 tag adduct
B6: NYA-0001 (scFv)
scFv: GEVQLVESGGGVVQPGRSLTPSCSASGFSIRSYDIHWVRQAPGKGLEWVATISYDGSQKYFADSVKGRFTIFRDESENMVYLQMSGLRVEDTAVYHCARGSSGHYEAFDIWGQGTMVTVSSGGGGSGGGGSGGGGSQSVLTQPPSVSAAPGQKVTISCSGSSSNIGNNYVSWYQQLPGTAPKLLIYDNNKRPSGIPDRFSGSKSGTSATLGITGLQTGDEADYYCGTWDSSLSAPWVFGGGTKVTVLGAAAGAGGDYKDDDDKGAAAHHHHHH
notes: also called NYA-0001 tag adduct; NY-R119 expressed in a cultured mammalian cell
B7: NYA-2023 (scFv)
scFv: GEVQLVESGGGVVQPGRSLTPSCSASGFSIRSYDIHWVRQAPGKGLEWVATISYDGSQKYFADSVKGRFTIFRDESENMVYLQMSGLRVEDTAVYHCARGSSGHYEAFDIWGQGTMVTVSSGGGGSGGGGSGGGGSQSVLTQPPSVSAAPGQKVTISCSGSSSNIGNWYVSWYQQLPGTAPKLLIYDNNKRPSGIPDRFSGSKSGTSATLGITGLQTGDEADYYCGTWDSSLSAPWVFGGGTKVTVLGAAAGAGGDYKDDDDKGAAAHHHHHH
B8: NYA-1154 (scFv)
scFv: GEVQLVESGGGVVQPGRSLTPSCSASGFSIRSYDMHWVRQAPGKGLEWVATISYDGSQKYFADSVKGRFTIFRDESENMVYLQMSGLRVEDTAVYHCARGSSNHYEAFDIWGQGTMVTVSSGGGGSGGGGSGGGGSQSVLTQPPSVSAAPGQKVTISCSGSSSNIGNNYVSWYQRLPGTAPKLLIYDNNKRPSGIPDRFSGSKSGTSATLGITGLQTGDEADYYCGAWDSSLSAPWVFGGGTKVTVLGAAAGAGGDYKDDDDKGAAAHHHHHH
B9: NYA-2035 (scFv)
scFv: GEVQLVESGGGVVQPGRSLTPSCSASGFSIRSYDIHWVRLAPGKGLEWVATISYDGSQKYFADSVKGRFTIFRDESENMVYLQMSGLRVEDTAVYHCARGSSGHYEAFDIWGQGTMVTVSSGGGGSGGGGSGGGGSQSVLTQPPSVSAAPGQKVTISCSGSSSNIGNWKVSWYQQLPGTAPKLLIYDNNKRPSGIPDRFSGSKSGTSATLGITGLQTGDEADYYCGTWDSSLSAPWVFGGGTKVTVLGAAAGAGGDYKDDDDKGAAAHHHHHH
B10: NYA-2143 (scFv)
scFv: GEVQLVESGGGVVQPGRSLTPSCSASGFSIRSYDIHWVRLAPGKGLEWVATISYDGSQKYFADSVKGRFTIFRDESENMVYLQMSGLRVEDTAVYHCARGSSGHYEAFDIWGQGTMVTVSSGGGGSGGGGSGGGGSQSVLTQPPSVSAAPGQKVTISCSGSSSNIGNWYVSWYQRLPGTAPKLLIYDNNKRPSGIPDRFSGSKSGTSATLGITGLQTGDEADYYCGTWDSSLSAPWVFGGGTKVTVLGAAAGAGGDYKDDDDKGAAAHHHHHH
B11: NYA-1163 (scFv)
scFv: GEVQLVESGGGVVQPGRSLTPSCSASGFSIRSYDIHWVRLAPGKGLEWVATISYDGSQKYFADSVKGRFTIFRDESENMVYLQMSGLRVEDTAVYHCARGSSGHYEAFDIWGQGTMVTVSSGGGGSGGGGSGGGGSQSVLTQPPSVSAAPGQKVTISCSGSSSNIGNNYVSWYQQLPGTAPKLLIYDNNKRPSGIPDRFSGSKSGTSATLGITGLQTGDEADYYCGTWDSSLSAPWVFGGGTKVTVLGAAAGAGGDYKDDDDKGAAAHHHHHH
B12: NYA-1143 (scFv)
scFv: GEVQLVESGGGVVQPGRSLTPSCSASGFSIRSYDIHWVRLAPGKGLEWVATISYDGSQKYFADSVKGRFTIFRDESENMVYLQMSGLRVEDTAVYHCARGSSGHYEAFDIWGQGTMVTVSSGGGGSGGGGSGGGGSQSVLTQPPSVSAAPGQKVTISCSGSSSNIGNWYVSWYQQLPGTAPKLLIYDNNKRPSGIPDRFSGSKSGTSATLGITGLQTGDEADYYCGTWDSSLSAPWVFGGGTKVTVLGAAAGAGGDYKDDDDKGAAAHHHHHH

How the values were obtained:
Test in all cases: flow cytometry on peptide-pulsed T2 cells, scFv 100 nM
6L = biological target: T1, 6L
T1 construct: also called HLA-A2 / point-mutant NY-ESO peptide 6L complex on T2 cells

4A = biological target: T2, 4A
T2 construct: also called HLA-A2 / point-mutant NY-ESO peptide 4A complex on T2 cells

5A = biological target: T3, 5A
T3 construct: also called HLA-A2 / point-mutant NY-ESO peptide 5A complex on T2 cells

3A = biological target: T4, 3A
T4 construct: also called HLA-A2 / point-mutant NY-ESO peptide 3A complex on T2 cells

9A = biological target: T5, 9A
T5 construct: also called HLA-A2 / point-mutant NY-ESO peptide 9A complex on T2 cells

8A = biological target: T6, 8A
T6 construct: also called HLA-A2 / point-mutant NY-ESO peptide 8A complex on T2 cells

1F = biological target: T7, 1F
T7 construct: also called HLA-A2 / point-mutant NY-ESO peptide 1F complex on T2 cells

2M = biological target: T8, 2M
T8 construct: also called HLA-A2 / point-mutant NY-ESO peptide 2M complex on T2 cells

7F = biological target: T9, 7F
T9 construct: also called HLA-A2 / point-mutant NY-ESO peptide 7F complex on T2 cells

Row | Binder | standardized gMFI (6L) | standardized gMFI (4A) | standardized gMFI (5A) | standardized gMFI (3A) | standardized gMFI (9A) | standardized gMFI (8A) | standardized gMFI (1F) | standardized gMFI (2M) | standardized gMFI (7F)
1 | B1 | 6.14 | 0.63 | 0.67 | 4.2 | 7.75 | 4.11 | 0.51 | 5.36 | 
2 | B2 | 13.4 | 3.21 |  | 10.9 | 15.6 | 10 | 0.68 | 13.5 | 3.62
3 | B3 | 8.8 |  |  | 7.46 | 9.98 | 7.35 | 0.53 | 8.8 | 1.99
4 | B4 | 7.07 | 0.86 |  | 6.09 | 9.54 | 6.61 | 0.48 | 7.34 | 
5 | B5 | 3.78 |  | 0.65 | 4.75 | 7.99 | 3.69 | 3.56 | 5.66 | 5.07
6 | B6 | 7.97 | 0.83 | 0.78 | 7.88 | 6.56 | 6.67 | 0.6 | 7.72 | 0.97
7 | B7 | 7.51 | 2.48 |  | 4.92 | 10.8 | 5.4 | 0.72 | 6.74 | 4.72
8 | B8 | 9.36 | 6.63 |  | 8 | 11.2 | 11.9 |  | 9.49 | 6.08
9 | B9 | 8.95 |  |  | 5.81 | 11.5 | 6.41 | 0.6 | 8.8 | 5.83
10 | B10 | 12.9 | 7.19 |  | 10.3 | 14.5 | 9.69 | 2.72 | 13.2 | 
11 | B11 |  | 0.57 | 0.62 |  | 4.01 | 6 | 0.53 |  | 
12 | B12 | 12.9 |  | 3.15 | 10.2 | 15.1 | 8.74 |  | 11.9 | 
